Bridge positions count the residues as written; N and C are the ends. Ends that are not written are not given here.

The source of these data is patent publication US20080014143A1 (SANFORD BURNHAM MEDICAL RESEARCH INSTITUTE, published 2008).

In experiment [1] the target is purified gC1qR/p32 protein (coated onto microtiter wells) (human) (UniProt Q07021). Briefly: phage binding to purified p32 coated on microtiter wells, plaque assay.
The target of experiment [2] is gC1qR/p32 at the cell surface (C8161 cells transfected with p32 cDNA; MDA-MB-435 and MDA-MB-435 S35 cells; Raji cells) (human) (UniProt Q07021). The experiment is described as follows: inhibition of LyP-1 phage binding to Raji cells; competitor LyP-1 phage; 40 µg/ml mAb.
Experiment [3] has as its target purified gC1qR/p32 protein (coated onto microtiter wells) (human) (UniProt Q07021). Briefly: inhibition of phage binding to purified p32 on wells; competitor LyP-1 phage; 20 µg/ml mAb.
Experiment [4] has as its target T1, endogenous gC1qR/p32 of tumor cells and tissues (extracts of MDA-MB-435 cells, BT549 cells, MDA-MB-435 tumor … (human, UniProt Q07021 74-282)).
T1 construct: mature; 33 kD band in cell extracts; in tumor xenograft extracts an additional 75 kD band was also identified as gC1qR/p32; also called gC1q/p32 receptor; p32/p33/gC1qR/HABP1
T1 sequence (looked up): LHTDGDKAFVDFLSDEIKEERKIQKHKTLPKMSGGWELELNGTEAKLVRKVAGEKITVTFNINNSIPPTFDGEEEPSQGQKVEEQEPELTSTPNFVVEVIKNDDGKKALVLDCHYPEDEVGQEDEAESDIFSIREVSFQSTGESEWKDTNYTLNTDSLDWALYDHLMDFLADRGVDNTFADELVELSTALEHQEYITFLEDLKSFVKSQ
The experiment is described as follows: pull-down from MDA-MB-435 cell extract with biotinylated peptide on streptavidin beads, anti-p32 immunoblot. The source says:
A tumor homing peptide, CREKA (SEQ ID NO: 3), and a peptide CRV which resembles Lyp-1 in its amino acid composition and cyclic structure (SEQ ID NO: 4, […]), were used as negative controls. (a) Left panel: silver staining of Lyp-1 bound proteins. The arrow indicates a specific 33 kD band, which was identified as gC1q/p32R by mass spectrometry. Right panel: immunoblot of total cell extract (Tot lysate) and proteins bound to Lyp-1 and control peptides using a monoclonal antibody against gC1q/p32 receptor. The antibody recognizes a band of 33 kD in the total proteins lysate and in the Lyp-1 pull down. Anti gC1q/p32 receptor reactive bands are not detected in the pull downs from both control peptides. […] The monoclonal antibody against gC1qR/p32 recognized a 75 kD and a 33 kD band only in the Lyp-1 peptide pull down (b-right panel).
A tumor homing peptide, CREKA (SEQ ID NO:3), and a peptide CRV which resembles Lyp-1 in its amino acid composition and cyclic structure (SEQ ID NO:4, […]), were used as negative controls. The Lyp-1 bound proteins were visualized using silver staining and immunobloting. […] The arrow indicates a specific 33 kD band, which was identified as gC1qR/p32 by mass spectrometry. […] The antibody recognizes a band of 33 kD in the total proteins lysate and in the Lyp-1 pull down. Anti gC1qR/p32 reactive bands are not detected in the pull downs from both control peptides.
Background: In western blotting, separated proteins are transferred to a membrane and probed.

In experiment [5] the target is T2, gC1qR/p32 at the cell surface (C8161 cells transfected with p32 cDNA); MDA-MB-435 and MDA-MB-435 S35 cells; … (human, UniProt Q07021 74-282).
T2 construct: whole, on cells; also called cell surface p32; cell surface gC1qR/p32
T2 sequence (looked up): T1 sequence (looked up)
The experiment is described as follows: FACS of FITC-peptide on live MDA-MB-435 cells transfected with p32 siRNA or control siRNA. Here is the method:
48 hours after transfection, inhibition of p32 expression was checked by immunoblot analysis and immunostaining (upper panels). β-actin was used as a control. (Lower panels) cells transfected with p32 siRNA or control siRNA were incubated for 1 h at 4 °C in the presence of 10 μM FITC conjugated LyP-1 peptide or a control peptide, […] (ARAL, SEQ ID NO: 5), which has same overall charge as LyP-1. Cells incubated in the absence of peptide served as negative control. Down-regulation of p32 expression reduced LyP-1 binding to the cells (left panel), but control peptide fluorescence was unaffected (right panel). A representative experiment out of three is shown. C. […] Insertless phage was used to determine background phage binding. The results are representative of three independent experiments and are expressed as percentage of phage binding (±SD), with binding of LyP-1 phage in the presence of mIgG1 set as 100%.
MDA-MB-435 cells were transiently transfected with gC1qR/p32-specific or control siRNAs. […] The amount of fluorescence in living cells was analyzed by FACS. Cells incubated in the absence of peptide served as FITC negative control.

For the molecule “LyP-1 phage (phage displaying the LyP-1 peptide)”, in experiment [1], the fold binding over insertless control phage was found to be 60 fold. With “mouse monoclonal anti-gC1qR/p32 antibody 60.11”, the percent reduction of LyP-1 binding in experiment [2] was 50%. The molecule also displayed a percent reduction of LyP-1 phage binding in experiment [3] of 90%.

B1: biotinylated CRV peptide (CRVRTRSGC) (peptide)
peptide: CRVRTRSGC
modifications: disulfide 1-9 (inferred); also: biotinylated, site not given here
notes: Negative control in the pull-down; also called control peptide
As to B1, the binding result in experiment [4] is on record as “no binding”.

B2: biotinylated CREKA peptide (peptide)
peptide: CREKA
modifications: also: biotinylated, site not given here
notes: as for B1
For B2, the binding result in experiment [4] was “no binding”. Regarding ARALPSQRSR (also: FITC conjugated, site not given here, Same overall charge as LyP-1) [FITC conjugated control peptide ARALPSQRSR], in experiment [5], the binding result is listed as “no binding (tested: 10 µM)”.
